Measurements taken from PMC3937519.
pKd: −log10 of the molar value.

Assays:
[1] = biological target: Vif H108A-CBF-β-Elo B/C complex (HIV-1 NL4.3 | human | not stated) (UniProt Q13951); assay: ITC
[2] = biological target: Vif H27A-CBF-β-Elo B/C complex (HIV-1 NL4.3 | human | not stated) (UniProt Q13951); assay: ITC
[3] = biological target: Vif V25A-CBF-β-Elo B/C complex (HIV-1 NL4.3 | human | not stated) (UniProt Q13951); assay: ITC
[4] = biological target: wild-type Vif-CBF-β-Elo B/C complex (HIV-1 NL4.3 | human | not stated) (UniProt Q13951); assay: ITC
[5] = biological target: HIV-1 NL4.3 Vif H27A, recombinant (E. coli) (HIV-1 NL4.3); assay: pull-down
[6] = biological target: HIV-1 NL4.3 Vif H28A, recombinant (E. coli) (HIV-1 NL4.3); assay: pull-down
[7] = biological target: HIV-1 NL4.3 Vif M29A, recombinant (E. coli) (HIV-1 NL4.3); assay: pull-down
[8] = biological target: HIV-1 NL4.3 Vif Y30A, recombinant (E. coli) (HIV-1 NL4.3); assay: pull-down

For “Cul5-NTD (residues 1 to 393, V341R, L345D) (from UniProt Q93034 1-393) (domain or fragment)”, the pKd [1] was 7.44, the dH [1] was -4 kcal/mol and the pKd [2] was 6.18. The pKd [3] was 6.29, the pKd [4] was 8.23 and the dH [4] was -9 kcal/mol.

In the case of “N-terminal Cul5, co-expressed in E. coli (Cul5/Vif pET-Duet) (domain or fragment)”, the percent reduction of Cul5 binding against wild-type Vif [5] was over 60%, the percent reduction of Cul5 binding against wild-type Vif [6] was 20% and the percent reduction of Cul5 binding against wild-type Vif [7] was over 60%. For the same substance, the percent reduction of Cul5 binding against wild-type Vif [8] was over 60%.
